The chains are these.
T1: recombinant Factor VIII (CSL627, rVIII-SingleChain) (Homo sapiens (Human), UniProt P00451 20-2351)
T1 construct: also called FVIII
T1 sequence: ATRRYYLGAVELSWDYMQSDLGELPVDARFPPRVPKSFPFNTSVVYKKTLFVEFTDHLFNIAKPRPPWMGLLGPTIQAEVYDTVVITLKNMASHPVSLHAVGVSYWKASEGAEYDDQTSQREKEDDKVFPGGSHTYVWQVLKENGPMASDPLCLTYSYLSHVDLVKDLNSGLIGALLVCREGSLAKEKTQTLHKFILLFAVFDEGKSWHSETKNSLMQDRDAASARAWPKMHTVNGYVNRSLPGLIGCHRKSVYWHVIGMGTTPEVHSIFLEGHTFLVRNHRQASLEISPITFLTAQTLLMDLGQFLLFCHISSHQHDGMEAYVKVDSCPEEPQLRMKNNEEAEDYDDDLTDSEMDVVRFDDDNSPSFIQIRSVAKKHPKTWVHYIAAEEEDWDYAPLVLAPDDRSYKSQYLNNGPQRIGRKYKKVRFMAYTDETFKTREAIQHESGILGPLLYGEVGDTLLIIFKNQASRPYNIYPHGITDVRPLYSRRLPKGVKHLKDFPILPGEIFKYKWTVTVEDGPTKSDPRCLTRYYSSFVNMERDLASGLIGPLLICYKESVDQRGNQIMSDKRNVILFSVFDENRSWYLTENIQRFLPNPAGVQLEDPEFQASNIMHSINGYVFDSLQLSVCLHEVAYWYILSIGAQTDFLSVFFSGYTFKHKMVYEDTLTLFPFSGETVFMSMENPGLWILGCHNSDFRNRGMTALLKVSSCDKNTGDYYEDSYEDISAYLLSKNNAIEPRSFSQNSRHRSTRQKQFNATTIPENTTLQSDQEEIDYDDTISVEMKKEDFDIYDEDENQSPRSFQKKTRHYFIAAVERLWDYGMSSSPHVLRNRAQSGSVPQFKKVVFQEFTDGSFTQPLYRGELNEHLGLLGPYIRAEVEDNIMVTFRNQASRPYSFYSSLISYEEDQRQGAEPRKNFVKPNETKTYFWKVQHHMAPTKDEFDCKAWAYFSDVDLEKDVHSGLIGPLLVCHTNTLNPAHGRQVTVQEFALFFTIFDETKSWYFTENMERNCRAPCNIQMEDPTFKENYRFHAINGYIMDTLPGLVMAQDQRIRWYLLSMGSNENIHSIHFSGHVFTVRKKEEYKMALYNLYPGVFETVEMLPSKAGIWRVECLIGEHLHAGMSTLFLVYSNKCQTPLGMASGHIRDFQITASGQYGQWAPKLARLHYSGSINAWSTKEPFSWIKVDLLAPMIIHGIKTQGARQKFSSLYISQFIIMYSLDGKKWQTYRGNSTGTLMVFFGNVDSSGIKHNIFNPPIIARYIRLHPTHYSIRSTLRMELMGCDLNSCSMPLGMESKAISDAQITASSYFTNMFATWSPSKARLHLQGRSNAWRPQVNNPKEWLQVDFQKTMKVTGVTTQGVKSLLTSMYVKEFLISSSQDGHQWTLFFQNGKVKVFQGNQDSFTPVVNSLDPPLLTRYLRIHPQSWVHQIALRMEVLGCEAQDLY

B1: Hu-vWF[764-1270]-8His S766Y-P769N (other)
chain: SLYCRNPMVKLVCPADNLRAEGLECTKTCQNYDLECMSMGCVSGCLCPPGMVRHENRCVALERCPCFHQGKEYAPGETVKIGCNTCVCRDRKWNCTDHVCDATCSTIGMAHYLTFDGLKYLFPGECQYVLVQDYCGSNPGTFRILVGNKGCSHPSVKCKKRVTILVEGGEIELFDGEVNVKRPMKDETHFEVVESGRYIILLLGKALSVVWDRHLSISVVLKQTYQEKVCGLCGNFDGIQNNDLTSSNLQVEEDPVDFGNSWKVSSQCADTRKVPLDSSPATCHNNIMKQTMVDSSCRILTSDVFQDCNKLVDPEPYLDVCIYDTCSCESIGDCACFCDTIAAYAHVCAQHGKVVTWRTATLCPQSCEERNLRENGYECEWRYNSCAPACQVTCQHPEPLACPVQCVEGCHAHCPPGKILDELLQTCVDPEDCPVCEVAGRRFASGKKVTLNPSDPEHCQICHCDVVNLTCEACQEPGGLVVPPTDAPVSPTTLYVEDISEPPLHDFHHHHHHHH
B2: Hu-vWF[764-1270]-8His S766Y-P769W (other)
chain: B1 chain with N6W
B3: Hu-vWF[764-1270]-8His S766Y-P769V (other)
chain: B1 chain with N6V
B4: Hu-vWF[764-1270]-8His S766Y-P769Y (other)
chain: B1 chain with N6Y
B5: Hu-vWF[764-1270]-8His S766Y-P769T (other)
chain: B1 chain with N6T
B6: Hu-vWF[764-1270]-8His S766Y-P769S (other)
chain: B1 chain with N6S
B7: Hu-vWF[764-1270]-8His S766Y-P769Q (other)
chain: B1 chain with N6Q
B8: Hu-vWF[764-1270]-8His S766Y-R768E (other)
chain: B1 chain with R5E, N6P
B9: Hu-vWF[764-1270]-8His S766Y-R768D (other)
chain: B1 chain with R5D, N6P
B10: Hu-vWF[764-1270]-8His S766Y-R768G (other)
chain: B1 chain with R5G, N6P
B11: Hu-vWF[764-1270]-8His S766Y-R768A (other)
chain: B1 chain with R5A, N6P
B12: Hu-vWF[764-1270]-8His S766Y-R768F (other)
chain: B1 chain with R5F, N6P
B13: Hu-vWF[764-1270]-8His S766Y-P769R (other)
chain: B1 chain with N6R

Positions count from the first letter of the chain named. Names and notes keep the numbering of the source.

The source of these data is patent US20190015483A1 (CSL BEHRING RECOMBINANT FACILITY, published 2019).

By Kd is commonly meant the equilibrium constant for the complex coming apart. One may read the koff as a measure of how fast the partners let go of each other. A word on the kon: it is the rate constant with which the complex forms.

For this experiment, the target named is T1, recombinant Factor VIII (CSL627, …). In words: SPR, anti-His capture, FVIII injected, 37 C. Put shortly: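 Kinetic constants come from 1:1 model fits of sensorgrams corrected against an anti-His-only spot and a buffer blank. In this screen, mutants from cell medium sat at 40-150 RU, and FVIII flowed over at 1 nM for 5 minutes, then dissociated for 5 minutes.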
Background: In SPR one partner is held on a chip, and binding of the other changes the refractive index at the surface.
On to B1, for which the Kd was 32.5 pM, the koff came to 0.00052 s⁻¹ and the kon amounted to 1.6e+07 M⁻¹ s⁻¹.
With B2, the Kd was 88.2 pM, the koff was determined as 0.000421 s⁻¹ and the kon came out at 4.77e+06 M⁻¹ s⁻¹.
On the same counts, the results for B3 are 84.9 pM, 0.000565 s⁻¹ and 6.65e+06 M⁻¹ s⁻¹.
As to B4, the Kd is 84.7 pM, the koff came out at 0.000396 s⁻¹ and the kon came to 4.68e+06 M⁻¹ s⁻¹.
Regarding B5, the Kd was found to be 97.9 pM, the koff was 0.0005 s⁻¹ and the kon stood at 5.11e+06 M⁻¹ s⁻¹.
On the same counts, the results for B6 are 113 pM, 0.000511 s⁻¹ and 4.51e+06 M⁻¹ s⁻¹.
In the case of B7, the binding result is “no binding”.
As for B8, the Kd is 569 pM, the koff is 0.00322 s⁻¹ and the kon worked out at 5.65e+06 M⁻¹ s⁻¹.
The matching figures for B9: 908 pM, 0.00448 s⁻¹ and 4.94e+06 M⁻¹ s⁻¹.
Take B10: the Kd turned out to be 320 pM, the koff is 0.00102 s⁻¹ and the kon is 3.2e+06 M⁻¹ s⁻¹.
Consider B11, for which the Kd came to 212 pM, the koff is 0.00148 s⁻¹ and the association rate constant (kon) worked out at 6.99e+06 M⁻¹ s⁻¹.
On the same counts, the results for B12 are 279 pM, 0.00182 s⁻¹ and 6.51e+06 M⁻¹ s⁻¹.
On the same counts, the results for B13 are 45 pM, 0.000295 s⁻¹ and 6.55e+06 M⁻¹ s⁻¹.
